Results on one substance are retold here after PMC4163360.

The assay has as its target selenomethionyl (Se-Met) labeled MJ0927 (Methanocaldococcus jannaschii). Put plainly: crystal structure; Se-Met MJ0927, P2_(1) crystal form, MAD phasing; crystals grown at 4°C, 5% PEG3350, 0.1 M sodium acetate pH 5.0, 0.3 M sodium formate, 0.1 M ammonium sulfate, 3% PGA-LM; six molecules in the asymmetric unit.

Substance “selenomethionyl (Se-Met) labeled MJ0927 (natural protein)” returned a stoichiometry N of 6.
